Where no end group is shown, it is not given here. The star is where a group is joined. Biotin = O=C1N[C@H]2[C@H](CS[C@H]2CCCCC(=O)*)N1
Key:
BST-1 = molecular target: T1, BST-1 (Homo sapiens, UniProt Q10588); assay: Inhibition of ADP-ribosyl cyclase activity of BST-1 (NGD method); format: biochemical; conditions: DTT 10 mM
T1 construct: made in house; host or cells: baculovirus (pVL1393); virus made in Sf9, protein expressed in High five insect cells
T1 sequence (Q10588 33-297): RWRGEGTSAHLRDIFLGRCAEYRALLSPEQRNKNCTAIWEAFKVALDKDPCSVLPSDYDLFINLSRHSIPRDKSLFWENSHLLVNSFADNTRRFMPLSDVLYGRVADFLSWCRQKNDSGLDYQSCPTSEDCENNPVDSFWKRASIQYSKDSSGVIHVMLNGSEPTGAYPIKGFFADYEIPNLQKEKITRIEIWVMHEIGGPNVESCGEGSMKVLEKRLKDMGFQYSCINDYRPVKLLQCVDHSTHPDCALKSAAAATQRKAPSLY
Excerpt: The fact that the peptide thus obtained inhibits ADP-ribosyl cyclase activity of BST-1 may be identified by comparing the ADP-ribosyl cyclase activity when measured in the absence of the peptide with the activity in the presence of the peptide. As previously mentioned, NAD is converted to cADP-ribose by ADP-ribosyl cyclase activity of BST-1, and therefore, the activity may be measured by allowing to react NAD with BST-1 and then quantitatively determining NAD and cADP-ribose after separation of them by anion-exchange chromatography (FEBS letters, 356, 244, 1994). Alternatively, nicotinamide guanine dinucleotide (NGD) may be used as a substrate instead of NAD, which is converted to cyclic guanosine-5′-diphosphate-ribose cGDP-ribose that can be fluorimetrically measured with an excitation wavelength of 300 nm and an emission wavelength of 410 nm, whereby the velocity of the formation of cGDP-ribose reflects ADP-ribosyl cyclase activity (J. Biol. Chem., […], 30260, 1994).
The abscissa is time course and the ordinate is fluorescence intensity. Purified BST-1 (4 μg/ml) was mixed with NGD (300 μM), and the mixture was allowed to react at 25° C. for 300 seconds, and then the synthetic peptide SNP-1 was added thereto at the concentration of 20 μM.
Inhibition of ADP-ribosyl cyclase activity of BST-1 by synthetic peptides was tested by means of the NGD method previously mentioned. […]

bovine serum albumin = molecular target: T2, bovine serum albumin (bovine, UniProt P02769 25-607); assay: phage ELISA, well coated with BSA alone
T2 construct: also called BSA
T2 sequence (P02769 25-607 limits assumed): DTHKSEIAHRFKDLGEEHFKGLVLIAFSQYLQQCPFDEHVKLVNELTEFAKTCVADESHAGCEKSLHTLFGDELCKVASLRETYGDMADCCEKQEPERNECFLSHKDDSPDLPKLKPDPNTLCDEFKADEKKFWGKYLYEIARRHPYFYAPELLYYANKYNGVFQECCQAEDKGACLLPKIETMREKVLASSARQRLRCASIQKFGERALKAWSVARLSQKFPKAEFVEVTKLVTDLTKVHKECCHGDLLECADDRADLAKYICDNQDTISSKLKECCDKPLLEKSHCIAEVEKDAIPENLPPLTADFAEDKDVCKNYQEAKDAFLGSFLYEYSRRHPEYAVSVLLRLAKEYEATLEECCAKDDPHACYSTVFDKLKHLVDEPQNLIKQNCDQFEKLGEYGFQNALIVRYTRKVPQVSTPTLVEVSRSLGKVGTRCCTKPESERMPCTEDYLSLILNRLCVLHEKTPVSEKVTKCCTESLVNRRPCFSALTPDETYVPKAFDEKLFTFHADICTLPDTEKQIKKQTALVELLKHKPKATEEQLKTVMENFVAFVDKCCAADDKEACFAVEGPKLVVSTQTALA

[1] = molecular target: T3, soluble human bone marrow stromal cell antigen-1 (BST-1) (human, UniProt Q10588 33-297); assay: Biacore SPR, BST-1 amine-coupled on CM5, equilibrium values at 400-2000 nM peptide, Scatchard plot
T3 construct: range 1-297; Expressed with baculovirus in High five insect cells, purified to 95% or more; The construct encodes codons 1-297; also called purified BST-1; soluble BST-1
T3 sequence (looked up): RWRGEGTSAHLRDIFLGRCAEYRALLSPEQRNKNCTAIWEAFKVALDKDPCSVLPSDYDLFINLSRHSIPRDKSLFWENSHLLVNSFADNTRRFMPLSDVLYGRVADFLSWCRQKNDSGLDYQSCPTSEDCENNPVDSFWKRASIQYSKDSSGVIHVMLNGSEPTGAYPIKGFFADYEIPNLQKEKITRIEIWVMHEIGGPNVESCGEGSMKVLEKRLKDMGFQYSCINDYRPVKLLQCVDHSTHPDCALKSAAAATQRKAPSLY
Description: BST-1 was immobilized at 2800 resonance unit (RU) on the sensor chip CM5 of a bio-sensor for analyzing protein interactions, BIACORE (Biacore K.K.), by means of an amine coupling method. The synthetic peptides were passed through the sensor chip at the flow rate of 40 µl/min at the concentration of from 400 nM to 2000 nM. Equilibrium binding value was obtained for each concentration. Based on the equilibrium binding values, dissociation constants were calculated by means of Scatchard plot method (Hulme E. C.; Receptor-binding studies, a brief outline, in Receptor Biochemistry: A Practical Approach, 303–315, IRL press, 1990).

Molecule: O[C@@H](CS)[C@@H](O)CS [DTT]
- ADP-ribosyl cyclase activity of BST-1 after addition of reducing agent (BST-1): complete disappearance

B1: phage SN-1 (phage expressing the peptide defined by SEQ ID NO: 1) (peptide)
peptide: HSQISGKYQRYLKDA
notes: not shown: phage coat protein of the Fuse 5 vector to which the peptide is fused; not specified
- binding result (bovine serum albumin): no binding

B2: synthetic peptide SNP-1 (peptide)
peptide: HSQISGKYQRYLKDA
notes: 15-residue synthetic peptide, purity 95% or more; also called prototype SNP-1; original SNP-1
- Kd [1]: 510 nM

Molecule: HSQISGKYQRYLKDAK(Biotin) [SNPb-1 (SNP-1 with an additional C-terminal Lys carrying biotin)]
- Kd [1]: 810 nM

B3: phage SN-16 (phage expressing the peptide defined by SEQ ID NO: 2) (peptide)
peptide: DDVVYTNIHKWGRRE
notes: as for B1
- binding result (bovine serum albumin): no binding

Molecule: {Sulfo‑NHS‑LC‑Biotin}-HSQISGKYQRYLKDA [bSNP-1 (SNP-1 biotinylated at the N-terminal)]
- Kd [1]: 530 nM

Source: patent US6414113B1, “Peptides binding to bone marrow stromal cell antigen” (Biomolecular Engineering Research Institute, priority 1998, dated 2002)
